Target: gC1qR-ΔΔ, gC1qR deletion mutant that removed the flexible, negatively charged loops (UniProt Q07021)
Assay: SPR; gC1qR-WT or gC1qR-ΔΔ immobilised; two-fold dilution series of analyte injected; reference-corrected sensorgrams fit to kinetic models; apparent KD

Chain of gC1qR-ΔΔ, gC1qR deletion mutant that removed the flexible, negatively charged loops (Q07021 74-282, stated change not applied): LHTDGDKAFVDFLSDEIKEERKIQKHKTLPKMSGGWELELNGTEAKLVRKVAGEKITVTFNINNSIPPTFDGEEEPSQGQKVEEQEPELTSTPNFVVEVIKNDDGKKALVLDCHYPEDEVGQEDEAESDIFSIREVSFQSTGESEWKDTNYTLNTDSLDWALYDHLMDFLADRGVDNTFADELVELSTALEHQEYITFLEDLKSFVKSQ

SARS-CoV-2 Membrane-Envelope fusion protein, recombinant
Kd: 0.36 µM
